Experimental data: patent publication US20260144882A1 (BIO THERA SOLUTIONS, published 2026)
Positions count from the first letter of the chain named.

T1: human Nectin-4 extracellular antigen hNectin-4-His (human, UniProt Q96NY8 32-349)
T1 construct: C-terminal 8xHis tag included
T1 sequence: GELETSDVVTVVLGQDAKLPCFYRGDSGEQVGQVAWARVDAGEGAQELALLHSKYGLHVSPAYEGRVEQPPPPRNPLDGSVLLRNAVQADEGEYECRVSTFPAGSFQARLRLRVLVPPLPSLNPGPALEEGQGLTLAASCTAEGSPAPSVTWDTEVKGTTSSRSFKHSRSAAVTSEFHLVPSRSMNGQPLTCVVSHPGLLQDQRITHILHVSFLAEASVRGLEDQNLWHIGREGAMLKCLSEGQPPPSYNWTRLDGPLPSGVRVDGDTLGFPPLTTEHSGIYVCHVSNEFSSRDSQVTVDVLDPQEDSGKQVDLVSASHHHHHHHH

B1: 10F4-1E10 scFv (scFv, V domains shown)
VH: EVQLVESGGGLVQPGGSLRLSCAASGDTFDTYAMSWVRQAPGKGLEWVSGISQWGAYASYADSVKGRFTISRDNSKNTLYLQMNSLRAEDTAVYYCAREYSDVVDYVSVRTPLDYWGQGTLVTVSS
VL: DIQMTQSPSSLSASVGDRVTITCRASQGISSYLAWYQQKPGKAPKLLIYAASSLQSGVPSRFSGSGSGTDFTLTISSLQPEDFATYYCQQHYTTPPTFGQGTKVEIKR
notes: phage clone supernatant
B2: 10F4-1H11 scFv (scFv, V domains shown)
VH: EVQLVESGGGLVQPGGSLRLSCAASGYTFTGFWMSWVRQAPGKGLEWVSSISPDSGTKHYADSVKGRFTISRDNSKNTLYLQMNSLRAEDTAVYYCAREYSDVVDYVSVRTPLDYWGQGTLVTVSS
VL: B1 VL
notes: phage clone supernatant
B3: 10F4-2E1 scFv (scFv, V domains shown)
VH: B1 VH with D27F, D30T, A33D, S52K, Q53Y, W54S, G55K, A56Y, A58T, S59H
VL: B1 VL
notes: phage clone supernatant
B4: 10F4-1H1 scFv (scFv, V domains shown)
VH: EVQLVESGGGLVQPGGSLRLSCAASGYSFGNFDMSWVRQAPGKGLEWVSGIKQYKGYTSYADSVKGRFTISRDNSKNTLYLQMNSLRAEDTAVYYCAREYSDVVDYVSVRTPLDYWGQGTLVTVSS
VL: B1 VL
notes: phage clone supernatant
B5: 10F4-1G8 scFv (scFv, V domains shown)
VH: EVQLVESGGGLVQPGGSLRLSCAASGFNFSDFDMSWVRQAPGKGLEWVSVIKPSGDYINYADSVKGRFTISRDNSKNTLYLQMNSLRAEDTAVYYCAREYSDVVDYVSVRTPLDYWGQGTLVTVSS
VL: B1 VL
notes: phage clone supernatant
B6: 10F4-1G7 scFv (scFv, V domains shown)
VH: B5 VH with F27Y, S30G, F32Y, V50S, K52I, P53G, S54H, Y57T, I58K, N59F
VL: B1 VL
notes: phage clone supernatant
B7: 10F4-2A1 scFv (scFv, V domains shown)
VH: EVQLVESGGGLVQPGGSLRLSCAASGYTFDDYDMSWVRQAPGKGLEWVSGIKAHSDNKRYADSVKGRFTISRDNSKNTLYLQMNSLRAEDTAVYYCAREYSDVVDYVSVRTPLDYWGQGTLVTVSS
VL: B1 VL
notes: phage clone supernatant
B8: 10F4-1F8 scFv (scFv, V domains shown)
VH: B2 VH with G31D, F32Y, W33D, S52I, P53T, S55G, T57G, K58A, H59F
VL: B1 VL
notes: phage clone supernatant
B9: 10F4-2G2 scFv (scFv, V domains shown)
VH: B5 VH with F27Y, S30T, F32Y, V50S, K52I, P53A, D56S, Y57G, I58N, N59Y
VL: B1 VL
notes: phage clone supernatant
B10: 10F4-1H4 scFv (scFv, V domains shown)
VH: EVQLVESGGGLVQPGGSLRLSCAASGFNFTNYWMSWVRQAPGKGLEWVSAISGTGGYTYYADSVKGRFTISRDNSKNTLYLQMNSLRAEDTAVYYCAREYSDVVDYVSVRTPLDYWGQGTLVTVSS
VL: B1 VL
notes: phage clone supernatant
B11: 10F4-1F9 scFv (scFv, V domains shown)
VH: B4 VH with Y27F, N31G, Q53T, K55G, T58R
VL: B1 VL
notes: phage clone supernatant
B12: 10F4-2E6 scFv (scFv, V domains shown)
VH: EVQLVESGGGLVQPGGSLRLSCAASGFSFGDYWMSWVRQAPGKGLEWVSAIDQGKATSFYADSVKGRFTISRDNSKNTLYLQMNSLRAEDTAVYYCAREYSDVVDYVSVRTPLDYWGQGTLVTVSS
VL: B1 VL
notes: phage clone supernatant
B13: 10F4-2F11 scFv (scFv, V domains shown)
VH: B7 VH with T28N, D30T, D31S, A53T, H54G, S55G, D56G, N57S, K58A
VL: B1 VL
notes: phage clone supernatant
B14: 10F4-1G5 scFv (scFv, V domains shown)
VH: B7 VH with D31S, Y32S, D33W, G50S, K52D, H54Y, S55G, N57Y, K58N, R59F
VL: B1 VL
notes: phage clone supernatant
B15: 10F4-2E8 scFv (scFv, V domains shown)
VH: B5 VH with S30G, D31N, F32Y, V50S, K52I, S54H, I58S, N59F
VL: B1 VL
notes: phage clone supernatant
B16: 10F4-1H6 scFv (scFv, V domains shown)
VH: B7 VH with Y27F, T28N, D30Y, A53T, D56G, N57G, K58N, R59G
VL: B1 VL
notes: phage clone supernatant
B17: 10F4-1F2 scFv (scFv, V domains shown)
VH: B7 VH with T28N, D30T, D31N, D33Y, G50S, K52S, H54Y, K58R, R59N
VL: B1 VL
notes: phage clone supernatant
B18: 10F4-2C12 scFv (scFv, V domains shown)
VH: B10 VH with F27Y, T30G, N31D, W33S, A50V, S52D, G53T, G55S, G56A, Y59R
VL: B1 VL
notes: phage clone supernatant
B19: 10F4-2E4 scFv (scFv, V domains shown)
VH: B10 VH with F27Y, N28T, T30D, N31S, S52D, G55D, G56S, Y57V, T58A
VL: B1 VL
notes: phage clone supernatant
B20: 10F4-2C6 scFv (scFv, V domains shown)
VH: B4 VH with Y27F, S28N, N31G
VL: B1 VL
notes: phage clone supernatant
B21: 10F4-2C4 scFv (scFv, V domains shown)
VH: B12 VH with F27Y, A50V, Q53S, K55S, A56G, T57N, S58K, F59R
VL: B1 VL
notes: phage clone supernatant
B22: 10F4-2A5 scFv (scFv, V domains shown)
VH: B4 VH with G30T, N31D, F32Y, Q53T, G56S, Y57D, T58A, S59R
VL: B1 VL
notes: phage clone supernatant
B23: 10F4-1E12 scFv (scFv, V domains shown)
VH: B5 VH with F27Y, D31S, F32Y, V50G, K52S, P53D, S54T, I58A
VL: B1 VL
notes: phage clone supernatant
B24: 10F4-1H7 scFv (scFv, V domains shown)
VH: B4 VH with G30D, N31T, F32Y
VL: B1 VL
notes: phage clone supernatant

Molecular target: T1, human Nectin-4 extracellular antigen …
Assay: ELISA, phage scFv supernatant 1:50

Binder | OD value
B1 | 1.29 OD
B2 | 1.56 OD
B3 | 1.6 OD
B4 | 1.61 OD
B5 | 1.52 OD
B6 | 1.54 OD
B7 | 1.76 OD
B8 | 1.49 OD
B9 | 1.49 OD
B10 | 1.38 OD
B11 | 1.48 OD
B12 | 1.45 OD
B13 | 1.46 OD
B14 | 1.41 OD
B15 | 1.38 OD
B16 | 1.48 OD
B17 | 1.4 OD
B18 | 1.45 OD
B19 | 1.43 OD
B20 | 1.52 OD
B21 | 1.53 OD
B22 | 1.59 OD
B23 | 1.52 OD
B24 | 1.49 OD
